Experimental findings from US20240376185A1 (SMIVET B V, published 2024) are described below.

Experiment [1] deals with Tetanus neurotoxin (TeNT), authentic tetanus holotoxin (Clostridium tetani, UniProt P04958 2-1315).
Experiment [2] concerns the target T1, tetanus neurotoxin (TeNT), authentic tetanus holotoxin (Clostridium tetani, UniProt P04958 2-1315). In words: cell-based or functional assay.
The target of experiment [3] is T1, tetanus neurotoxin (TeNT), authentic ….
Experiment [4] has as its target tetanus neurotoxin (TeNT), authentic tetanus holotoxin (Clostridium tetani, UniProt P04958 2-1315). This is another data set of the same source.

Substitutions are numbered along the chain they refer to. Numbers in names are those of the source. Some results are limits rather than exact numbers.

B1: SVT06-SVT16-L123Q-GS2-SVG13M4-H6 (bispecific antibody)
chain: QVQLQESGGGSVQAGGSLRLSCTASELSYDDYTIAWFRRAAGEGRVEDGEGVASITKSYDRAYDNKINYGHSVKGRFTISRDNAKNTVYLQMTDLLPSDTAVYYCALDITPPGGVGASLTEGFLFDYWGQGTQVTVSSQVQLQESGGGSVQAGDSLRLSCAASGRTISNYAMGWFRQAPGKQREFVAAISRSDNTYYTDSVKGRFTISRDNAKNTLYLQMNSLKPEETAVYYCAADPNLMYESKWKYRALEAWGQGTQVTVSSGGGGSGGGSEVQLVESGGGLVQPGGSLRLSCEASGFTFDDYGMSWVRQAPGKGLEWVSSLTPNGGSTYYADSVKGRFTISRDNAKNTLYLQMNSLKPEDTALYYCAKNSYYGAMDYWGQGTQVTVSSHHHHHH
As a reminder, the Kd is the constant that tells how readily two partners part at equilibrium. A higher Kd goes with a looser complex. The term koff denotes the rate constant with which the complex falls apart. Usually kon stands for a measure of how fast the partners come together. A higher kon goes with faster complex formation. As for B1, in experiment [1], binding was put at a Kd of 0.0159 nM, the koff stood at 6.61e-06 s⁻¹ and the kon stood at 417000 M⁻¹ s⁻¹.

B2: SVT06-GS3-SVT16-L123Q-GS2-SVA12M2-H6 (bispecific antibody)
chain: QVQLQESGGGSVQAGGSLRLSCTASELSYDDYTIAWFRRAAGEGRVEDGEGVASITKSYDRAYDNKINYGHSVKGRFTISRDNAKNTVYLQMTDLLPSDTAVYYCALDITPPGGVGASLTEGFLFDYWGQGTQVTVSSGGGGSGGGGSGGGGSQVQLQESGGGSVQAGDSLRLSCAASGRTISNYAMGWFRQAPGKQREFVAAISRSDNTYYTDSVKGRFTISRDNAKNTLYLQMNSLKPEETAVYYCAADPNLMYESKWKYRALEAWGQGTQVTVSSGGGGSGGGSEVQLVESGGGLVQAGGSLRLSCAASGRTFSYYPMAWFRQAPGQEREFVAAIIGADTTYYADSLKGRFTISRDNAKNMVYLQMNSLKPEDTAVYYCAARNTYWSDVYYREGQYTNWGQGTQVTVSSHHHHHH
B2: in experiment [2], the Endpoint dilution factor is more than 32, the “Potency IU/mg” value is more than 93.1 IU/mg and the “SDA concentration providing full protection” value worked out at 3.1 nM. In experiment [3], this molecule had a Kd of 0.0133 nM, a koff of 1.32e-05 s⁻¹ and a kon of 989000 M⁻¹ s⁻¹.

B3: SVT16-L123Q-GS2-SVA12M2-H6 (bispecific antibody)
chain: QVQLQESGGGSVQAGDSLRLSCAASGRTISNYAMGWFRQAPGKQREFVAAISRSDNTYYTDSVKGRFTISRDNAKNTLYLQMNSLKPEETAVYYCAADPNLMYESKWKYRALEAWGQGTQVTVSSGGGGSGGGSEVQLVESGGGLVQAGGSLRLSCAASGRTFSYYPMAWFRQAPGQEREFVAAIIGADTTYYADSLKGRFTISRDNAKNMVYLQMNSLKPEDTAVYYCAARNTYWSDVYYREGQYTNWGQGTQVTVSSHHHHHH
For the molecule B3, in experiment [3], the Kd stood at 0.224 nM, the koff amounted to 0.000199 s⁻¹ and the kon was 886000 M⁻¹ s⁻¹.

B4: SVT20L-L123Q (VHH)
VHH: QVQLQQSGGGLVQAGGSLRLSCAASGRTMSSYAMGWFRQAPGKQREFVAAISRSGGNTYYTDSVKGRFTISRDNAKNTLYLQMNSLKPEETAVYYCAADPNLMYESKWKYRALEAWGQGTQVTVSS
The IC50 is the midpoint of a concentration-inhibition curve. High values mean weaker potency in that assay, low ones greater potency in that assay. As for B4, the IC50 in experiment [4] is 0.038 µg/mL.

B5: SVT34L-L123Q (VHH)
VHH: B4 VHH with Q6E, A14P, M29I, T69I, S85N
In experiment [4], B5 showed an IC50 of 0.034 µg/mL.

B6: SVT16-L123Q-GS2-SVG13M4-H6 (bispecific antibody)
chain: QVQLQESGGGSVQAGDSLRLSCAASGRTISNYAMGWFRQAPGKQREFVAAISRSDNTYYTDSVKGRFTISRDNAKNTLYLQMNSLKPEETAVYYCAADPNLMYESKWKYRALEAWGQGTQVTVSSGGGGSGGGSEVQLVESGGGLVQPGGSLRLSCEASGFTFDDYGMSWVRQAPGKGLEWVSSLTPNGGSTYYADSVKGRFTISRDNAKNTLYLQMNSLKPEDTALYYCAKNSYYGAMDYWGQGTQVTVSSHHHHHH
On to B6, for which, in experiment [2], the Endpoint dilution factor is less than 1 and the “SDA concentration providing full protection” value is more than 1000 nM. In experiment [3], this molecule returned a Kd of 0.227 nM, a koff of 0.000184 s⁻¹ and a kon of 665000 M⁻¹ s⁻¹.
